Laboratory results as given in PMC10359594.
Read-outs that look alike come from different tables or passages of the source.

What was measured:
SAMHD1 WT [1] = biological target: T1, SAMHD1 WT (Homo sapiens, UniProt Q9Y3Z3 1-626); assay: fluorescence anisotropy
SAMHD1 WT [2] = biological target: T1, SAMHD1 WT; assay: fluorescence anisotropy; remark: listed apart in the source
[3] = biological target: T2, SAMHD1 113-626 (HD domain) (Homo sapiens, UniProt Q9Y3Z3 113-626); assay: crystal structure
[4] = biological target: T2, SAMHD1 113-626 (HD domain); assay: crystal structure; remark: listed apart in the source
SAMHD1 113-626 R451E = SAMHD1 113-626 R451E (Homo sapiens, UniProt Q9Y3Z3 113-626, R451E); assay: fluorescence anisotropy
SAMHD1 C522A = SAMHD1 C522A (Homo sapiens, UniProt Q9Y3Z3 1-626, C522A); assay: fluorescence anisotropy
Chain of SAMHD1 C522A (Q9Y3Z3 whole entry C522A): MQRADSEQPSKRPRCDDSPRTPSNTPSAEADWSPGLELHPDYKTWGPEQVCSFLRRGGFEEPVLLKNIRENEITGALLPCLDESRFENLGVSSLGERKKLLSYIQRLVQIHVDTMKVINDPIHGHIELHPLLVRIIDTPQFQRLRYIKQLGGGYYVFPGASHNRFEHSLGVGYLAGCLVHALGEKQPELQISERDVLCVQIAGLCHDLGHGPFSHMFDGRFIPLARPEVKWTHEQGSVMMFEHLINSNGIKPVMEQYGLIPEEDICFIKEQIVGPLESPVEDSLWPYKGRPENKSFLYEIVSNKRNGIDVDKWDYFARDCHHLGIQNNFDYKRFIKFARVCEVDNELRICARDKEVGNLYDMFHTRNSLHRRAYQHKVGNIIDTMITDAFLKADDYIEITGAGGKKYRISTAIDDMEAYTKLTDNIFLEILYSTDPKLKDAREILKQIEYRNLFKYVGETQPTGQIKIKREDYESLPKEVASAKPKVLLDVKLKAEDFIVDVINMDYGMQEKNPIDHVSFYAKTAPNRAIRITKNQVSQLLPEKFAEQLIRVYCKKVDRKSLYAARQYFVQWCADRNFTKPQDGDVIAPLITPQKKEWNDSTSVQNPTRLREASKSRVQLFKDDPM

T1 sequence (Q9Y3Z3 whole entry): as the sequence (Q9Y3Z3 whole entry C522A) above, with A522C counted along it
T2 sequence (Q9Y3Z3 113-626): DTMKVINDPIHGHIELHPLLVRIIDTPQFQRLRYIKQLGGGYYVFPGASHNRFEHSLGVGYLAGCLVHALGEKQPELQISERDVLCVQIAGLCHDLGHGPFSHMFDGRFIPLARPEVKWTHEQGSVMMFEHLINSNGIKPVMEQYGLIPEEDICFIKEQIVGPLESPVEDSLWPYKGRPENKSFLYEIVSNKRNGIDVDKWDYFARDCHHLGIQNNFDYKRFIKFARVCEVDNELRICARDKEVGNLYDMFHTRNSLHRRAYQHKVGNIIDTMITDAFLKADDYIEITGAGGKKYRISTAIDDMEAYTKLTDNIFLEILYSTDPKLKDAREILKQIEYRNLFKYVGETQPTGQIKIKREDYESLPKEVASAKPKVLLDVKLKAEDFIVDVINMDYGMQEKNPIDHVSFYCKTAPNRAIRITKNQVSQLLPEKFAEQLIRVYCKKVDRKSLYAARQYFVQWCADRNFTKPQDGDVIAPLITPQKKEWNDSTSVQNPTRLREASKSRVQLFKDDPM
Chain of SAMHD1 113-626 R451E (Q9Y3Z3 113-626 R451E): as the sequence (Q9Y3Z3 113-626) above, with R339E counted along it

B1: 3' overhang (mixed)
DNA 1: TGGAGAATCCCGGTGCCGAGGCCGCTCAATTGGTCGTAGACAGCTCTAGCACCGCTT
DNA 2: TGAGCGGCCTCGGCACCGGGATTCTCCA
binding result (SAMHD1 WT [1]): binds

B2: 3' fork (mixed)
DNA 1: TGGAGAATCCCGGTGCCGAGGCCGCTCAATTGGTCGTAGACAGCTCTAGCACCGCTT
DNA 2: AATTGTGAGCGGCCTCGGCACCGGGATTCTCCA
binding result (SAMHD1 WT [2]): binds

CATTG (ssDNA) [CATTG 5mer]
binding result [3]: binds

CATGT (ssDNA) [CATGT 5mer]
binding result [4]: binds

GACAGTGTTGAGACAGGACCAGACAGGTAG (ssDNA) [ssDNA 30mer]
binding result (SAMHD1 113-626 R451E): no binding

B3: dsDNA 30mer (dsDNA)
DNA 1: GACAGTGTTGAGACAGGACCAGACAGGTAG
DNA 2: CTACCTGTCTGGTCCTGTCTCAACACTGTC
binding result (SAMHD1 C522A): no binding
